Biological target: human TrkB receptor on cells (human, UniProt Q16620 32-822)
Experiment: cell-based or functional assay

Sequence of human TrkB receptor on cells (Q16620 32-822): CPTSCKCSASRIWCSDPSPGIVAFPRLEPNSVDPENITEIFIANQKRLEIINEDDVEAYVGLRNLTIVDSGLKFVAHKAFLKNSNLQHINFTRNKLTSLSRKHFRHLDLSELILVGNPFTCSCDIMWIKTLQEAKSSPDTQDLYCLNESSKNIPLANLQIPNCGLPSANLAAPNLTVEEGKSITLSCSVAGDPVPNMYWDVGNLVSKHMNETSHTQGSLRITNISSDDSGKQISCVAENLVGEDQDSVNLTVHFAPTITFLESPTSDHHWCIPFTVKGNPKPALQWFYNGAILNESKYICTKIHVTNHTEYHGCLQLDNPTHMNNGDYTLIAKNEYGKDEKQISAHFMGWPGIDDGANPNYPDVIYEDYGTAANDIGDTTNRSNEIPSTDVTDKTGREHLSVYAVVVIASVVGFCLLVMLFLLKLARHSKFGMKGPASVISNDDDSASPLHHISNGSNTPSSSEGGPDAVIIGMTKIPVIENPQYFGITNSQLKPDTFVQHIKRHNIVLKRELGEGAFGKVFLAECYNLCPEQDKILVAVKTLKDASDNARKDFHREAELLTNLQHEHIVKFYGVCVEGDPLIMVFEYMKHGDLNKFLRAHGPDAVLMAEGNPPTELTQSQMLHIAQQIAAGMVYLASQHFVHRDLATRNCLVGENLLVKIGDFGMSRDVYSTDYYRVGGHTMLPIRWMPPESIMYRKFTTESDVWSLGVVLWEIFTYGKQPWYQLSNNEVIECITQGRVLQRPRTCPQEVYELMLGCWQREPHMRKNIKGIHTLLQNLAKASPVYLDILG

B1: brain-derived neurotrophic factor (BDNF) (ligand, UniProt P23560 129-247, looked up)
chain: HSDPARRGELSVCDSISEWVTAADKKTAVDMSGGTVTVLEKVPVSKGQLKQYFYETKCNPMGYTKEGCRGIDKRHWNSQCRTTQSYVRALTMDSKKRIGWRFIRIDTSCVCTLTIKRGR
AKT 1/2/3-P (T308), differentiated SH-SY5Y cells, EC50: 255 pM
TrkB-P (TrkB phosphorylation, AlphaLISA, differentiated SH-SY5Y cells), EC50: 430 pM

— patent publication US20180355046A1 (Boehringer Ingelheim, published 2018)
